Test results as given in patent publication US9777309B2, “High throughput assay for monitoring AMP production and aminoacyl-tRNA synthetase activity” (Board of Supervisors of Louisiana State University and …, priority 2014, dated 2017).

Assays:
Test in all cases: purified protein, by the assay type
[1] = substrate: N[C@H](Cc1ccc(O)cc1)C(=O)O; conditions: other: 10 mM MgATP, saturating tRNA^Tyr, 25° C., L-Tyr with cyclodityrosine synthase, D-Tyr with D-tyrosyl-tRNA deacylase, pH 7.78
Procedure: (§1) The pH of all stock solutions was adjusted to 7.0 prior to use. All kinetic assays were performed in 96 well microtiter plates at 25° C. using either 100 or 200 μl of assay mix per well. Under these conditions, the path lengths are 0.28 and 0.56 cm, respectively. The reaction rate for formation of the L-Tyr-tRNA^TYr product was determined by monitoring the increase in absorbance at 340 nm associated with the conversion of NAD^+ to NADH using a BioTek Synergy 4 plate reader (ε340=6220 M^−1 cm^−1).
(§2) Initial rates for each substrate concentration were determined from a linear fit of the data (A340 vs. time). Km and Vmax values were determined by fitting a plot of the initial rate vs. substrate concentration to the Michaelis-Menten equation, the same equations (1) and (2) above:
(§3) [formula] where vo is the initial rate of the reaction and [S] is the substrate concentration. kcat values were calculated from the equation: Vmax=kcat[E]

[2] = substrate: N[C@@H](Cc1ccc(O)cc1)C(=O)O; conditions: other: 10 mM MgATP, saturating tRNA^Tyr, 25° C., L-Tyr with cyclodityrosine synthase, D-Tyr with D-tyrosyl-tRNA deacylase, pH 7.78
Procedure: as §1, §2, §3

[3] = substrate: Nc1ncnc2c1ncn2[C@@H]1O[C@H](COP(=O)(O)O)[C@@H](O)[C@H]1O; assay type: biochemical, Saccharomyces cerevisiae; conditions: other: pH 7.2, 2 mM ATP, 3 μM IMP dehydrogenase, 25° C., standard error in parenthesis
Procedure: All kinetic assays were performed in 96 well microtiter plates at 25° C. using 200 μl of assay mix per well. Under these conditions, the path length is 0.56 cm. All assays were monitored by following the change in absorbance at 340 nm over 10 minutes using a Synergy 4 Hybrid Microplate Reader (BioTek, Winooski, Vt.).
Initial rates for each substrate concentration were determined from a linear fit of the data (A340 vs. time). Km and Vmax values were determined by fitting a plot of initial rate vs. substrate concentration to the Michaelis-Menten equation:
[formula] where vo is the initial rate of the reaction, [E] is the total enzyme concentration, and [S] is the substrate concentration. kcat values were calculated from the equation: Vmax=kcat[E] (2) where [E] is the molar concentration of the enzyme in the assay.

B1: G. stearothermophilus tyrosyl-tRNA synthetase (Geobacillus stearothermophilus) (protein)
chain: MDLLAELQWRGLVNQTTDEDGLRKLLNEERVTLYCGFDPTADSLHIGHLATILTMRRFQQAGHRPIALVGGATGLIGDPSGKKSERTLNAKETVEAWSARIKEQLGRFLDFEADGNPAKIKNNYDWIGPLDVITFLRDVGKHFSVNYMMAKESVQSRIETGISFTEFSYMMLQAYDFLRLYETEGCRLQIGGSDQWGNITAGLELIRKTKGEARAFGLTIPLVTKADGTKFGKTESGTIWLDKEKTSPYEFYQFWINTDDRDVIRYLKYFTFLSKEEIEALEQELREAPEKRAAQKTLAEEVTKLVHGEEALRQAIRISEALFSGDIANLTAAEIEQGFKDVPSFVHEGGDVPLVELLVSAGISPSKRQAREDIQNGAIYVNGERLQDVGAILTAEHRLEGRFTVIRRGKKKYYLIRYA
- Km [1]: 23 (±6) μM
- Km [2]: 24 (±3) μM

B2: AMP deaminase (Saccharomyces cerevisiae S288C) (protein)
chain: MDNQATQRLNDLSLEPAPSHDEQDGSGLVIDIDQRKIGDEQAGVVVDDETPPLEQQDSHESLAADSRNANFSYHENQQLLENGTKQLALDEHDSHSAILEQPSHSTNCSSSNIAAMNKGHDSADHASQNSGGKPRTLSASAQHILPETLKSFAGAPVVNKQVRTSASYKMGMLADDASQQFLDDPSSELIDLYSKVAECRNLRAKYQTISVQNDDQNPKNKPGWVVYPPPPKPSYNSDTKTVVPVTNKPDAEVFDFTKCEIPGEDPDWEFTLNDDDSYVVHRSGKTDELIAQIPTLRDYYLDLEKMISISSDGPAKSFAYRRLQYLEARWNLYYLLNEYQETSVSKRNPHRDFYNVRKVDTHVHHSACMNQKHLLRFIKHKLRHSKDEKVIFRDGKLLTLDEVFRSLHLTGYDLSIDTLDMHAHKDTFHRFDKFNLKYNPIGESRLREIFLKTNNYIKGTYLADITKQVIFDLENSKYQNCEYRISVYGRSLDEWDKLASWVIDNKVISHNVRWLVQIPRLYDIYKKTGIVQSFQDICKNLFQPLFEVTKNPQSHPKLHVFLQRVIGFDSVDDESKVDRRFHRKYPKPSLWEAPQNPPYSYYLYYLYSNVASLNQWRAKRGFNTLVLRPHCGEAGDPEHLVSAYLLAHGISHGILLRKVPFVQYLYYLDQVGIAMSPLSNNALFLTYDKNPFPRYFKRGLNVSLSTDDPLQFSYTREPLIEEYSVAAQIYKLSNVDMCELARNSVLQSGWEAQIKKHWIGKDFDKSGVEGNDVVRTNVPDIRINYRYDTLSTELELVNHFANFKRTIEEK
- Km [3]: 0.4 (±0.1) mM
- kcat [3]: 21 (±4) s^−1
